The source of these data is article PMC10409285 (PLOS Pathogens, 2023).

The target of test [1] is Soluble DRB1*15:01 (human) (UniProt P01903). In words: fluorescence polarisation. (In general: Polarisation of emitted light reports the rotation of a fluorescent probe.)
Test [2] concerns the target Soluble DRB5*01:01 (human) (UniProt P01903). In words: fluorescence polarisation.
For test [3], the target named is Soluble DRB1*15:01 (human) (UniProt P01903).
The target in test [4] is Soluble DP4 (HLA-DPA1*01:03/DPB1*04:01) (human).
The next test has as its system A549 cells. As to conditions: cells treated with IFN-γ and trametinib (IFN-γ 100 ng/mL; trametinib 50 ng/mL, 50 nM).
A further test addresses T1, DR2b (DRB1*15:01) (Homo sapiens, UniProt P01903+P01911).
T1 construct: Soluble DRB1*15:01 and DRB5*01:01 with a covalently linked CLIP peptides; covalently linked CLIP peptide (3C-protease-cleavable linker) (cleaved yes); purchased NIH Tetramer Core Facility / Emory University (a gift of Drs. John Altman and Richard Willis, not bought)
In words: fluorescence polarization competition binding assay, DR2b. As to conditions: mean of two independent experiments.

Another test has as its target DR2a (DRB5*01:01) (Homo sapiens, UniProt P01903+Q30154). In words: fluorescence polarization competition binding assay, DR2a.
The target of test [5] is Soluble DP4 (HLA-DPA1*01:03/DPB1*04:01) (human). In words: fluorescence polarisation.
The mark [6] stands for this setting: fluorescence polarization competition, […], mean of two independent experiments, read-out: Mean IC50, DR2a (DRB5*01:01).

Like-named read-outs stand apart in the source and are kept apart here.

A word on the IC50: it is the point on the concentration scale where inhibition reaches its midpoint.

“P9, OC43 hemagglutinin esterase 128–142 (peptide)”: the half-inhibitory concentration (IC50) in test [1] and in test [2] was less than 1 µM throughout. Take P10, OC43 nucleoprotein 54–68 (peptide): the IC50 in test [3] is less than 1 µM. In the case of P5, OC43 spike 760–773 (peptide), the half-inhibitory concentration (IC50) in test [4] was less than 1 µM.

As to P12, OC43 spike 98–114 (peptide), the half-inhibitory concentration (IC50) in test [2] was less than 1 µM; in test [3], more than 1 µM. P11, OC43 spike 1085–1099 (peptide): in test [3], the IC50 is less than 1 µM. Take “P2, OC43 nucleoprotein 321–336 (peptide)”: the IC50 in test [4] is more than 10 µM. Still for that read-out and setting: in the case of P4, OC43 spike 903–917 (peptide) it was less than 10 µM. Same read-out and setting: the value for P3, OC43 spike 97–111 (peptide) was less than 10 µM.

As to `CC(=O)Nc1cccc(-n2c(=O)n(C3CC3)c(=O)c3c(Nc4ccc(I)cc4F)n(C)c(=O)c(C)c32)c1` [trametinib], the “MHC-II expression in A549 cells” value with A549 cells is recorded as “small increase”. As for `CC[C@H](C)[C@H](NC(=O)[C@@H](NC(=O)[C@H](CC(N)=O)NC(=O)[C@H](CO)NC(=O)[C@H](CCCCN)NC(=O)[C@H](CCC(=O)O)NC(=O)[C@@H](NC(=O)[C@H](CO)NC(=O)[C@H](C)NC(=O)[C@H](Cc1ccccc1)NC(=O)[C@H](Cc1ccc(O)cc1)NC(=O)[C@@H](NC(=O)CNC(=O)[C@H](CC(=O)O)NC(=O)[C@H](CC(N)=O)NC(=O)[C@@H](N)Cc1ccccc1)C(C)C)[C@@H](C)O)[C@@H](C)CC)C(=O)O` [S#18 (CoV2)], the IC50 on DR2b (DRB1*15:01) is 777 µM; at DR2a (DRB5*01:01) (setting [6]), 41.3 µM.

As for P6, OC43 spike 1140–1155 (peptide), the 50% inhibitory concentration (IC50) in test [4] is more than 10 µM. As for `CC(C)C[C@H](NC(=O)[C@H](C)NC(=O)[C@@H](NC(=O)[C@@H](N)CC(C)C)[C@@H](C)O)C(=O)N[C@@H](CC(N)=O)C(=O)N[C@@H](C)C(=O)N[C@@H](Cc1ccc(O)cc1)C(=O)N[C@H](C(=O)N[C@@H](CO)C(=O)N[C@@H](CCC(N)=O)C(=O)N[C@@H](CCC(N)=O)C(=O)N[C@@H](CC(C)C)C(=O)N[C@@H](CO)C(=O)N[C@@H](CC(=O)O)C(=O)N[C@@H](CO)C(=O)O)C(C)C` [Peptide P11], the IC50 on DR2b (DRB1*15:01) came out at 0.14 µM; on DR2a (DRB5*01:01) it was 63.5 µM. The compound P14, OC43 envelope 62–78 (peptide) gave a concentration for half-maximal inhibition (IC50) in test [4] of less than 10 µM. For `CC[C@H](C)[C@H](NC(=O)[C@H](CC(=O)O)NC(=O)[C@H](CO)NC(=O)[C@H](CC(C)C)NC(=O)[C@H](CCC(N)=O)NC(=O)[C@H](CCC(N)=O)NC(=O)[C@H](CO)NC(=O)[C@@H](NC(=O)[C@H](Cc1ccc(O)cc1)NC(=O)[C@H](C)NC(=O)[C@H](CC(N)=O)NC(=O)[C@H](CC(C)C)NC(=O)[C@H](C)NC(=O)[C@@H](NC(=O)[C@@H](N)CC(C)C)[C@@H](C)O)C(C)C)C(=O)O` [Peptide P11.HKU1], the half-maximal inhibitory concentration (IC50) on DR2b (DRB1*15:01) was determined as 0.22 µM; on DR2a (DRB5*01:01), 21.3 µM. Consider `CC[C@H](C)[C@H](NC(=O)[C@@H](NC(=O)CNC(=O)[C@H](CC(N)=O)NC(=O)[C@H](CCC(=O)O)NC(=O)[C@H](CC(N)=O)NC(=O)[C@H](Cc1ccc(O)cc1)NC(=O)[C@H](CCCCN)NC(=O)[C@H](CC(C)C)NC(=O)[C@H](CC(C)C)NC(=O)[C@H](Cc1ccccc1)NC(=O)[C@@H](NC(=O)[C@H](CCCNC(=N)N)NC(=O)[C@@H]1CCCN1C(=O)[C@@H](N)CCC(N)=O)[C@@H](C)O)[C@@H](C)O)C(=O)N[C@H](C(=O)O)[C@@H](C)O` [S#55 (CoV2)], for which the IC50 on DR2b (DRB1*15:01) was found to be 3.7 µM; on DR2a (DRB5*01:01) (setting [6]), 66.2 µM. Take “P1, OC43 hemagglutinin esterase 259–273 (peptide)”: in test [5], the IC50 is less than 1 µM. P7, OC43 spike 1147–1164 (peptide): the IC50 in test [4] is less than 10 µM. “P8, OC43 hemagglutinin esterase 93–107 (peptide)” came in with a concentration for half-maximal inhibition (IC50) in test [1] of less than 1 µM.
